Test results taken from patent US20260274955A1 (JANUX THERAPEUTICS, published 2026).

Legend:
[1] = target: T1, Anti-CD28 Fab (SEQ ID NOs: 202, 203); assay: phage ELISA, Fab on plate, CD28 antigen as competitor
T1 construct: biotinylated and captured on neutravidin coated plates in the phage ELISA
Method: (§1) After panning, phage infected bacteria were plated out and colonies picked into 96 well blocks. Clonal phage was then amplified and separated from bacterial cells via centrifugation.
(§2) Clonal phage were harvested as crude supernatants and screened via standard ELISAs. […] Prior to the addition of clonal phage, wells were incubated with blocking buffer and CD28 antigen or blocking buffer alone. Without washing or aspirating, clonal phage supernatants were then added to the wells and incubated for a short time. Wells were then washed followed by detection of bound phage using a horse radish conjugated anti-M13 antibody. Clonal phage of interest were then sent for sequence analysis.

[2] = target: T1, Anti-CD28 Fab (SEQ ID NOs: 202, 203); assay: phage ELISA, Fab on plate;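 also: crude clonal phage supernatants added to wells pretreated with blocking buffer with or without CD28 antigen, then bound phage read out via HRP-linked anti-M13 antibody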
Method: as §1, §2

T1 sequence (VH, as listed by the source, chain 1 of 2): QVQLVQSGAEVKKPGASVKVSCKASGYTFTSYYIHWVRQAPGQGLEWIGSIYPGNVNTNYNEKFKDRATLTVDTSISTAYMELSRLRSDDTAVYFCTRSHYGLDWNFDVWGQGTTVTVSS
T1 sequence (VL, as listed by the source, chain 2 of 2): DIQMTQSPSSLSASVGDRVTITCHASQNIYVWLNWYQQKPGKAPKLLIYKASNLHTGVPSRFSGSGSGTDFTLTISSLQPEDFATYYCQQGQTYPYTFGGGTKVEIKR

Row | Binder | Anti-CD28 Fab signal in the presence of CD28 [1] | Anti-CD28 Fab (SEQ ID NOs: 202, 203) signal [2]
1 | YCDGHAEEYRMKCL [Phage-678] | 0.08 | 1.27
2 | YCEGHMEKYMEKCL [Phage-641] | 0.11 | 1.35
3 | YCDGHSSVYMLKCL [Phage-680] | 0.06 | 1.26
4 | YCDGHSKEYMAKCL [Phage-646] | 0.06 | 1.34
5 | YCEGHLAEYMNKCL [Phage-690] | 0.07 | 1.24
6 | YCEGHLPRYMLKCL [Phage-671] | 0.3 | 1.28
7 | YCDGHLPLYMQKCF [Phage-652] | 0.1 | 1.33
8 | YCEGHHRIYMQKCL [Phage-681] | 0.07 | 1.26
9 | YCEGHLPAYMWKCL [Phage-659] | 0.08 | 1.31
10 | YCEGHLEIYLAKCL [Phage-655] | 0.07 | 1.32
11 | YCEGHLQEHMAKCL [Phage-684] | 0.05 | 1.25
12 | YCEGHQPAYMEKCL [Phage-677] | 0.06 | 1.27
13 | YCEGHSAVYMSKCL [Phage-663] | 0.06 | 1.31
14 | YCDGHSEQYMAKCL [Phage-687] | 0.06 | 1.24
15 | YCDGHAPQYMAKCI [Phage-665] | 0.06 | 1.3
16 | YCDGHRAEYMLKCL [Phage-668] | 0.08 | 1.29
17 | YCDGHMKEYMLKCL [Phage-635] | 0.06 | 1.36
18 | YCEGHMSIYMQKCL [Phage-683] | 0.07 | 1.25
19 | YCDGHVKEYMYKCL [Phage-636] | 0.06 | 1.36
20 | YCEGHSLEYMMKCV [Phage-664] | 0.07 | 1.3
21 | YCMGHLPIYMEKCL [Phage-670] | 0.05 | 1.28
22 | YCDGHMVQYMAKCL [Phage-639] | 0.07 | 1.36
23 | YCEGHLVQYMQKCL [Phage-669] | 0.06 | 1.28
24 | YCEGHDVQYMQKCL [Phage-749] | 0.08 | 1.06
25 | YCEGHSPEYMHKCL [Phage-647] | 0.09 | 1.34
26 | YCEGHLPMYMQKCL [Phage-660] | 0.08 | 1.31

Row | Binder | Anti-CD28 Fab signal in the presence of CD28 [1] | Anti-CD28 Fab (SEQ ID NOs: 202, 203) signal [2]
27 | YCEGHLPMYMTKCL [Phage-686] | 0.06 | 1.25
28 | YCAGHLPMYMQKCL [Phage-653] | 0.08 | 1.33
29 | YCDGHLSIYMTKCL [Phage-638] | 0.07 | 1.36
30 | YCDGHSPAYLQKCL [Phage-673] | 0.06 | 1.28
31 | YCDGHSEAYIEKCL [Phage-648] | 0.06 | 1.34
32 | YCEGHTQEYMQKCL [Phage-688] | 0.07 | 1.24
33 | YCDGHAPQYMRKCL [Phage-651] | 0.08 | 1.33
34 | YCDGHSEEFMWKCL [Phage-640] | 0.06 | 1.35
35 | YCAGLFEEYMSKCL [Phage-685] | 0.06 | 1.25
36 | YCQGHSVEHMAKCL [Phage-666] | 0.06 | 1.3
37 | YCEGHLPEYMIKCL [Phage-658] | 0.06 | 1.32
38 | YCAGHMPIYMTKCL [Phage-667] | 0.08 | 1.3
39 | YCEGHSTEYMAKCL [Phage-676] | 0.06 | 1.27
40 | YCEGHSEEYMAKCL [Phage-682] | 0.07 | 1.26
41 | YCDGHLEVYMDKCL [Phage-672] | 0.07 | 1.28
42 | YCAGHASEYMAKCL [Phage-650] | 0.08 | 1.33
43 | YCDGHLPRYMAKCL [Phage-642] | 0.1 | 1.35
44 | YCDGHLPDYMAKCL [Phage-712] | 0.07 | 1.17
45 | YCDGHIPEYMTKCL [Phage-661] | 0.06 | 1.31
46 | YCDGHLLQYMHKCL [Phage-644] | 0.07 | 1.35
47 | YCDGHLALYMWKCL [Phage-637] | 0.17 | 1.36
48 | YCEGHSSQWMWKCL [Phage-674] | 0.09 | 1.27
49 | YCEGHFPLYMNKCL [Phage-675] | 0.08 | 1.27
50 | YCSEHQIIFIQKCL [Phage-654] | 0.08 | 1.32
51 | YCDGHLPVYMTKCL [Phage-679] | 0.07 | 1.27
52 | YCAGHALEYMGKCL [Phage-657] | 0.06 | 1.32
